Where no end group is shown, it is not given here.
Target: T1, Rb-E2F binding (RbNP construct, E2FTMR peptide) (Homo sapiens, UniProt P06400, DEL245-267/DEL582-642)
T1 construct: lacks the internal loops in each domain (residues 53-787, Δ245-267, Δ582-642)
Test: Fluorescence polarization titration of RbNP into E2FTMR
Settings: RbNP titrated into 10 nM E2FTMR
Description: The inventors have designed and successfully implemented a high-throughput fluorescence polarization assay to screen molecules for their modulation of Rb-E2F binding affinity. In the current exemplary format, a peptide corresponding to the E2F transactivation domain (E2F2 amino acids 409-428) was synthesized with a tetramethylrhodamine dye (TMR) at its N-terminus (E2FTMR). This peptide can then be mixed with various Rb constructs, which bind the peptide and change the polarization of the TMR fluorescence. For initial experiments, the investigators have used an Rb construct RbNP, which contains the Rb N-terminal domain and pocket domain but lacks the internal loops in each domain (residues 53-787, Δ245-267, Δ582-642).
The affinity of E2FTMR for unphosphorylated Rb is approximately 7-fold tighter than its affinity for phosphorylated RbNP. In the presence of 10 μM synthetic peptide that contains the ‘L×C×E’ sequence from the E7 oncoprotein, phosphorylated Rb binds E2F with 2-fold higher affinity. This peptide, which has a similar effect in calorimetry measurements of affinity, binds near the RbN-pocket interface, and the investigators predict it inhibits interdomain docking.

T1 sequence (P06400 with tags, fused parts or gaps DEL245-267/DEL582-642, one chain of several): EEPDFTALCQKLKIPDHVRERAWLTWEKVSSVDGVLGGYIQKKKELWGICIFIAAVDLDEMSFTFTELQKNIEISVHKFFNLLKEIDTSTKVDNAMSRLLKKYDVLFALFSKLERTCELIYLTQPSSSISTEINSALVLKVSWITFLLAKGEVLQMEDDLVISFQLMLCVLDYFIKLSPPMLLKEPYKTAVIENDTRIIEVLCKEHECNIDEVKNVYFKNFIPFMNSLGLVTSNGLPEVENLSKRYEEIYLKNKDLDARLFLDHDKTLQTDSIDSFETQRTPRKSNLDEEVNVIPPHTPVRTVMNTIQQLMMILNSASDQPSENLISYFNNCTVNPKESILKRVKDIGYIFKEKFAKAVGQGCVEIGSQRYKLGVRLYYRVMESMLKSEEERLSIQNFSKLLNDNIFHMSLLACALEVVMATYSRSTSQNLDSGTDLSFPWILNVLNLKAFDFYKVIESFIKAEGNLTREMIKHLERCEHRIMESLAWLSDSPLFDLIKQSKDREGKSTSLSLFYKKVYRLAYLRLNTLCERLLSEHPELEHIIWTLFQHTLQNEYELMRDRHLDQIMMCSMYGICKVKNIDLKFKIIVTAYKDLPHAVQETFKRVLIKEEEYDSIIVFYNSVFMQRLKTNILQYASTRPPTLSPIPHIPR

Substance: E2FTMR: peptide corresponding to the E2F transactivation domain (E2F2 amino acids 409-428) with a tetramethylrhodamine dye at its N-terminus (tetramethylrhodamine-QDDYLWGLEAGEGISDLFDS; UniProt Q14209 409-428, looked up, fragment)
- Affinity of E2FTMR for unphosphorylated Rb relative to phosphorylated RbNP: approximately 7 fold
